How the values were obtained:
[1] = substrate: O=C(O)C[C@H](C(=O)O)[C@@H](O)C(=O)O; test: NADP+ reduction at A340, Michaelis-Menten fit; assay type: biochemical, Synechocystis sp. PCC 6803; conditions: decarboxylation, 0.15 mM NADP+, 10 mM HEPES pH 8.0, 40 mM MgCl2
[2] = substrate: O=C(O)CCC(=O)C(=O)O; test: NADPH decrease at A340, Michaelis-Menten fit; assay type: biochemical, Synechocystis sp. PCC 6803; conditions: carboxylation, 50 mM sodium bicarbonate fixed, 0.15 mM NADPH, 10 mM HEPES pH 8.0, 40 mM MgCl2
[3] = substrate: CC(C)(COP(=O)(O)OP(=O)(O)OC[C@H]1O[C@@H](n2cnc3c(N)ncnc32)[C@H](O)[C@@H]1OP(=O)(O)O)[C@@H](O)C(=O)NCCC(=O)NCCSC(=O)CCC(=O)O; test: coupled Fd/FNR assay, NADPH decrease at A340, Michaelis-Menten fit; assay type: biochemical, Chlorobaculum tepidum; conditions: carboxylation, 50 mM sodium bicarbonate fixed, 0.15 mM NADPH, 0.1 μM FNR, 1 μM Synechocystis Fd (slr1382), 1 mM MgCl2, 1 mM DTT, 1 mM TPP, pH 7.5, 30 °C, anaerobic, kcat per αβ-protomer
Excerpt: coupled Fd/FNR assay, NADPH decrease at A340, Michaelis-Menten fit on CtOGOR (2-oxoglutarate:ferredoxin oxidoreductase)

[4] = substrate: CC(C)(COP(=O)(O)OP(=O)(O)OC[C@H]1O[C@@H](n2cnc3c(N)ncnc32)[C@H](O)[C@@H]1OP(=O)(O)O)[C@@H](O)C(=O)NCCC(=O)NCCS; test: coupled Fd/FNR assay, NADP+ reduction at A340, Michaelis-Menten fit; assay type: biochemical, Chlorobaculum tepidum; conditions: decarboxylation, 5 mM 2-oxoglutarate fixed, 0.15 mM NADP+, 0.1 μM FNR, 1 μM Synechocystis Fd (slr1382), 1 mM MgCl2, 1 mM DTT, 1 mM TPP, pH 7.5, 30 °C, anaerobic, kcat per αβ-protomer
Excerpt: (§1) coupled Fd/FNR assay, NADP+ reduction at A340, Michaelis-Menten fit on CtOGOR (2-oxoglutarate:ferredoxin oxidoreductase)

[5] = substrate: O=C(O)CCC(=O)C(=O)O; test: as above; assay type: biochemical, Chlorobaculum tepidum; conditions: decarboxylation, 0.5 mM CoA fixed, 0.15 mM NADP+, 0.1 μM FNR, 1 μM Synechocystis Fd (slr1382), 1 mM MgCl2, 1 mM DTT, 1 mM TPP, pH 7.5, 30 °C, anaerobic, kcat per αβ-protomer
Excerpt: as §1

Protein	Km [1]	Km [2]	Km [3]	kcat [3]	kcat/Km [3]	Km [4]	kcat [4]	kcat/Km [4]	Km [5]	kcat [5]	kcat/Km [5]
Icd (isocitrate dehydrogenase) (Synechocystis sp. PCC 6803 substr. Kazusa) (protein) MYEKLQPPSVGSKITFVAGKPVVPNDPIIPYIRGDGTGVDIWPATELVINAAIAKAYGGREEINWFKVYAGDEACELYGTYQIFPEDTLTAIKEYGVAIKGPLTTPVGGGIRSLNVALRQIFDLYTCVRPCRYYPGTPSPHKTPEKLDIIVYRENTEDIYLGIEWAEGTEGAKKLIAYLNDELIPTTPALGKKQIRLDSGIGIKPISKTGSQRLVRRAILHAKRLPKAKQMVTLVHKGNIMKFTEGPFRDWGYELATTEFRAECVTERESWICGNKESNPDLTIEANAHMIDPGYDTLTEEKQAVIKQEVEQVLNSIWESHGNGQWKEKVMVNDRIADSIFQQIQTRPDEYSILATMNLNGDYLSDAAAAVVGGLGMGPGANIGDSAAIFEATHGTAPKHAGLDRINPGSVILSGVMMLEFMGWQEAADLIKKGIGAAIANREVTYDLARLMEPKVDKPLKCSEFAQAIVSHFDD	121 ± 13 µM	1003 µM	–	–	–	–	–	–	–	–	–
CtOGOR (2-oxoglutarate:ferredoxin oxidoreductase) (Chlorobaculum tepidum TLS) (protein, heterotetramer (alpha-beta)2, 220 kDa; N-terminal His6-KorA and C-terminal strep-tagged KorB, tags kept; codon-optimised genes; E. coli BL21(DE3); Fe-S clusters and TPP reconstituted) chain 1: MSDTVILNNNDMVISKTNVSVLFAGDSGDGMQLTGTQFANTVAVYGSDLNTFPNFPSEIRPPAGTVAGVSGFQLQFGTTGVYTPGAKFDVMIAMNAAALKANLKNLHHGGIIIADTDGFDAKNLNLAGYGETNNPLEDGTLTDYTVFKIPVISLTRQALADTGLSTKIIDRCKNMFVLGVLYWLYSLPLETTIEALQSKFKNKQDIAEANIKAVKAGYNFGDETEMFSQHGRFCVPPAQKKKGVYRRVTGNEASAIGLAAAAQKAGLELFLGSYPITPASEILQTLAGLKKWGVKTFQAEDEIAGILTSIGAAYGGALAATNTSGPGLALKTEGMGLAVILELPLVIINVMRGGPSTGLPTKPEQSDLLMAMYGRHGEAPMPVIAAMSPVDCFYAAYEAAKIAVEYMTPVLCLTDGYLALSSEPMLVPSPDELASITPMFSPERKADDPPYLPYKRDERCVRPWGIPGTPGLEHRIGGLEKQNETGHVSHDPENHALMTRLRAEKVAKVADIIPDLTIDNGPEKGDLLVLGWGSTYGAIKKAVEQAREGGLDVAHAHLRYINPFPKNLGAMLGNFKKVLIPENNCGQLLSLIRDKFLIEPVGFSKVQGLPFNEMEIEEKITDILKEL chain 2: MTDTHTCLTAKDFTSNQEPKWCPGCGDFMVLQQLKNAMAELCLKTEEVVVVSGIGCSSRLPYYINTYGVHGIHGRAMAMASGLKVARPDLSVWVGTGDGDALSIGGNHYIHTVRRNLDINVVLFNNEIYGLTKGQYSPTSKVGLRTVTSPTGVVDYPINTIALTLGAGGTFVARVMDRDGKLMKEIFKRAHNHKGTSIVEIYQNCPIFNDGAFRAFSDKERKDDTTLYLEQGQPLVFGANGSKGIYLDGFKPTVIDLEKSGVSKDDLWIHDENDLIKANILSRFFDDPNSTEEFLPRPFGIFYVEDRFTYEQALSAQIDKAQEKGEGTLEELLAGNSTWTIN	–	–	24 ± 2 µM	2.6 ± 0.1 s⁻¹	110000 ± 3500 M⁻¹ s⁻¹	42 ± 15 µM	8.1 ± 0.2 s⁻¹	192000 ± 2400 M⁻¹ s⁻¹	1689 ± 92 µM	8.4 ± 0.1 s⁻¹	5000 ± 100 M⁻¹ s⁻¹
